Measured values taken from patent US20210115424A1 (University of California, published 2021).

What was measured:
[1] = target: sorting signal peptide (quantitative HPLC assay of Table 2)
[2] = target: T1, SpaA derived sorting signal peptide KNAGFELPLTGGSGRI
T1 chain: KNAGFELPLTGGSGRI

[3] = target: SpaA, soluble form (residues 30-500) lacking the N-terminal signal peptide and C-terminal membrane anchor domain
[4] = target: T2, LPATG peptide KNAGFELPATGGSGRI
T2 chain: KNAGFELPATGGSGRI

[5] = target: ^NSpaA, N-terminal domain of SpaA (residues 30-194) containing the pilin motif with K190
[6] = target: T3, pilin motif peptide DGWLQDVHVYPKHQALS
T3 chain: DGWLQDVHVYPKHQALS

[7] = target: ^CSpaA, C-terminal domain of SpaA (residues 350-500) containing the LPLTG sorting signal
[8] = target: the molecule itself; experiment: X-ray crystallography (homodimer in the crystal)

B1: CdSrtA^Δ (CdSrtA active truncated variant with nine lid residues … deleted) (protein)
chain: NNARQARVAQSYENSYEVDSPAVRDSVLEAARQYNTSVVGFPSKNSGPYLDYLQQLNPQRAERPVIASISIPTIDAHLPIYHGTDTATLEHGLGHLYGSALPVGGTGTHPVITGHSGLANATLFDNLEDVKEHDPIYITVQGETLKYEVDAINVVLPEDTKLLAPDPNKDQITLITCTPYAVNSHRLLVRAHRVDLDPNDPNLTQTGTKIWQ
Km (M) × 10^-4 [1]: 0.00016 M | Vmax (s^-1) × 10^-9 [1]: 1e-08 s⁻¹ | kcat (s^-1) × 10^-5 [1]: 0.0004 s⁻¹ | kcat/kM [1]: 2.5 M⁻¹ s⁻¹

B2: ΔSrtA^2M (SrtA^2M with the H1 helix, residues 37-54, removed) (protein)
chain: DSPAVRDSVLEAARQYNTSVVGFPILGPGLNRASKNSGPYLDYLQQLNPQRAERPVIASISIPTIDAHLPIYHGTDTATLEHGLGHLYGSALPVGGTGTHPVITGHSGLANATLFDNLEDVKEHDPIYITVQGETLKYEVDAINVVLPEDTKLLAPDPNKDQITLITCTPYAVNSHRLLVRAHRVDLDPNDPNLTQTGTKIWQ
Vmax of hydrolysis kinetics (HPLC-based assay, SpaApep cleavage) [2]: 6.3 µM/h | in vitro SpaA pilus polymerization (SDS-PAGE) [3]: the removal of the H1 helix in the SrtA^2M enzyme also abrogates pilus polymerization

B3: Staphylococcus aureus sortase A, wild type (protein)
chain: QAKPQIPKDKSKVAGYIEIPDADIKEPVYPGPATPEQLNRGVSFAEENESLDDQNISIAGHTFIDRPNYQFTNLKAAKKGSMVYFKVGNETRKYKMTSIRDVKPTDVGVLDEQKGKDKQLTLITCDDYNEKTGVWEKRKIFVATEVK
hydrolysis of LPATG peptide (HPLC) [4]: SaSrtA robustly hydrolyzes the LPATG (SEQ ID NO. 5) peptide, as expected

B4: Staphylococcus aureus sortase A improved variant 4M (P94S/D160N/D165A/K196T) (protein)
chain: QAKPQIPKDKSKVAGYIEIPDADIKEPVYPGPATSEQLNRGVSFAEENESLDDQNISIAGHTFIDRPNYQFTNLKAAKKGSMVYFKVGNETRKYKMTSIRNVKPTAVGVLDEQKGKDKQLTLITCDDYNEKTGVWETRKIFVATEVK
hydrolysis of LPATG peptide (HPLC) [4]: almost entirely hydrolyzes the full length peptide after 24 hrs

B5: SrtA^2M N228A variant (protein)
chain: NNARQARVAQSYENSYEVDSPAVRDSVLEAARQYNTSVVGFPILGPGLNRASKNSGPYLDYLQQLNPQRAERPVIASISIPTIDAHLPIYHGTDTATLEHGLGHLYGSALPVGGTGTHPVITGHSGLANATLFDNLEDVKEHDPIYITVQGETLKYEVDAINVVLPEDTKLLAPDPNKDQITLITCTPYAVASHRLLVRAHRVDLDPNDPNLTQTGTKIWQ
hydrolysis of SpaApep (HPLC-based assay, SrtA^2M set as 100%) [2]: none of the mutants exhibited any significant defect in cleaving the LPXTG (SEQ ID NO. 5) motif | transpeptidation in vitro (ligation of ^NSpaA and ^CSpaA, SDS-PAGE) [5]: defective in transpeptidation in vitro, as no isopeptide linked SpaA-SpaA product was produced even after 48 hours

B6: CdSrtA^3M (CdSrtA D81G/W83G/N85A triple mutant) (protein)
chain: NNARQARVAQSYENSYEVDSPAVRDSVLEAARQYNTSVVGFPILGPGLARASKNSGPYLDYLQQLNPQRAERPVIASISIPTIDAHLPIYHGTDTATLEHGLGHLYGSALPVGGTGTHPVITGHSGLANATLFDNLEDVKEHDPIYITVQGETLKYEVDAINVVLPEDTKLLAPDPNKDQITLITCTPYAVNSHRLLVRAHRVDLDPNDPNLTQTGTKIWQ
hydrolysis of LPATG peptide (HPLC) [4]: CdSrtA^3M is unable to process any significant amount of peptide | HPLC-based sorting signal cleavage assay [2]: the CdSrtA^3M triple mutant exhibits the highest level of activity in a HPLC-based sorting signal cleavage assay | Km (M) × 10^-4 [1]: 8e-05 M | Vmax (s^-1) × 10^-9 [1]: 1.4e-09 s⁻¹ | kcat (s^-1) × 10^-5 [1]: 5.7e-05 s⁻¹ | kcat/kM [1]: 0.7 M⁻¹ s⁻¹ | labeling of ^NSpaA with the sorting signal peptide (MALDI-MS) [5]: >95% of ^NSpaA is labeled with the peptide | ligation of the pilin motif peptide to ^CSpaA or to the sorting signal peptide (MALDI-MS) [6]: In both instances, no detectable product was observed | cross-linked ^NSpaAx^CSpaA product after 24 hour incubation, relative to CdSrtA^2M (gel densitometry) [7]: 35% more product than CdSrtA^2M | cross-linked ^NSpaAx^CSpaA product after 24 hour incubation, relative to CdSrtA^WT (gel densitometry) [7]: 10.6-fold more cross-linked ^NSpaAx^CSpaA product than CdSrtA^WT

B7: Corynebacterium diphtheriae pilus-specific sortase SrtA, soluble catalytic domain fragment (residues 37-257), SrtA^WT (enzyme)
chain: NNARQARVAQSYENSYEVDSPAVRDSVLEAARQYNTSVVGFPILDPWLNRASKNSGPYLDYLQQLNPQRAERPVIASISIPTIDAHLPIYHGTDTATLEHGLGHLYGSALPVGGTGTHPVITGHSGLANATLFDNLEDVKEHDPIYITVQGETLKYEVDAINVVLPEDTKLLAPDPNKDQITLITCTPYAVNSHRLLVRAHRVDLDPNDPNLTQTGTKIWQ
notes: The His6-SUMO or His/TEV tag was removed after purification; also called CdSrtA^WT; Cd-SrtA
binding result [8]: binds | Vmax of hydrolysis kinetics (HPLC-based assay, SpaApep cleavage) [2]: 5.5 µM/h

B8: SrtA^2M S229A variant (protein)
chain: NNARQARVAQSYENSYEVDSPAVRDSVLEAARQYNTSVVGFPILGPGLNRASKNSGPYLDYLQQLNPQRAERPVIASISIPTIDAHLPIYHGTDTATLEHGLGHLYGSALPVGGTGTHPVITGHSGLANATLFDNLEDVKEHDPIYITVQGETLKYEVDAINVVLPEDTKLLAPDPNKDQITLITCTPYAVNAHRLLVRAHRVDLDPNDPNLTQTGTKIWQ
hydrolysis of SpaApep (HPLC-based assay, SrtA^2M set as 100%) [2]: none of the mutants exhibited any significant defect in cleaving the LPXTG (SEQ ID NO. 5) motif | transpeptidation in vitro (ligation of ^NSpaA and ^CSpaA, SDS-PAGE) [5]: defective in transpeptidation in vitro, as no isopeptide linked SpaA-SpaA product was produced even after 48 hours

B9: SrtA^2M Y225A variant (protein)
chain: NNARQARVAQSYENSYEVDSPAVRDSVLEAARQYNTSVVGFPILGPGLNRASKNSGPYLDYLQQLNPQRAERPVIASISIPTIDAHLPIYHGTDTATLEHGLGHLYGSALPVGGTGTHPVITGHSGLANATLFDNLEDVKEHDPIYITVQGETLKYEVDAINVVLPEDTKLLAPDPNKDQITLITCTPAAVNSHRLLVRAHRVDLDPNDPNLTQTGTKIWQ
hydrolysis of SpaApep (HPLC-based assay, SrtA^2M set as 100%) [2]: none of the mutants exhibited any significant defect in cleaving the LPXTG (SEQ ID NO. 5) motif | transpeptidation in vitro (ligation of ^NSpaA and ^CSpaA, SDS-PAGE) [5]: had impaired transpeptidation activity as well, but to a lesser extent than the S229A and N228A mutants

B10: SrtA^2M (residues 37-257 of CdSrtA with D81G/W83G lid mutations) (protein)
chain: NNARQARVAQSYENSYEVDSPAVRDSVLEAARQYNTSVVGFPILGPGLNRASKNSGPYLDYLQQLNPQRAERPVIASISIPTIDAHLPIYHGTDTATLEHGLGHLYGSALPVGGTGTHPVITGHSGLANATLFDNLEDVKEHDPIYITVQGETLKYEVDAINVVLPEDTKLLAPDPNKDQITLITCTPYAVNSHRLLVRAHRVDLDPNDPNLTQTGTKIWQ
Vmax of hydrolysis kinetics (HPLC-based assay, SpaApep cleavage) [2]: 6.3 µM/h

B11: SrtA^2M N165A variant (protein)
chain: NNARQARVAQSYENSYEVDSPAVRDSVLEAARQYNTSVVGFPILGPGLNRASKNSGPYLDYLQQLNPQRAERPVIASISIPTIDAHLPIYHGTDTATLEHGLGHLYGSALPVGGTGTHPVITGHSGLAAATLFDNLEDVKEHDPIYITVQGETLKYEVDAINVVLPEDTKLLAPDPNKDQITLITCTPYAVNSHRLLVRAHRVDLDPNDPNLTQTGTKIWQ
hydrolysis of SpaApep (HPLC-based assay, SrtA^2M set as 100%) [2]: none of the mutants exhibited any significant defect in cleaving the LPXTG (SEQ ID NO. 5) motif | transpeptidation in vitro (ligation of ^NSpaA and ^CSpaA, SDS-PAGE) [5]: this mutant retained near wild-type activity
